Measured values from patent US20170121382A1 (published 2017).
Like-named read-outs stand apart in the source and are kept apart here.

What was measured:
Experiment in all cases: SPR
human recombinant DMP1 [1] = target: T1, human recombinant DMP1 (human, UniProt Q13316 17-513)
T1 chain: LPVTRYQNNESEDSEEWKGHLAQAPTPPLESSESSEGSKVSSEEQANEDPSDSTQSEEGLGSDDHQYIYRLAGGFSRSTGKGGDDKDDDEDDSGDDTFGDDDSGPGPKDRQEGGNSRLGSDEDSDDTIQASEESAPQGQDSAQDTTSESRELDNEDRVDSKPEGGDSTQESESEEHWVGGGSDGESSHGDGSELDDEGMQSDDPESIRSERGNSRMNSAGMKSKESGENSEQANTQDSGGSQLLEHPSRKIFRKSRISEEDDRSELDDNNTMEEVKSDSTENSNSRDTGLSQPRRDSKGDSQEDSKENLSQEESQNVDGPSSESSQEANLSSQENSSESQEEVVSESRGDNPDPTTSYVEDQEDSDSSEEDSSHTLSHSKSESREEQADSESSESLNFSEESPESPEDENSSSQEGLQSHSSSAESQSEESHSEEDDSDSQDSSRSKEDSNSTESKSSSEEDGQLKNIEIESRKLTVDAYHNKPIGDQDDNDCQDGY

human recombinant DMP1 [2] = target: T1, human recombinant DMP1
ASARM peptide = target: ASARM peptide

B1: soluble human recombinant PHEX (enzyme)
chain: SLQAKQEYCLKPECIEAAAAILSKVNLSVDPCDNFFRFACDGWISNNPIPEDMPSYGVYPWLRHNVDLKLKELLEKSISRRRDTEAIQKAKILYSSCMNEKAIEKADAKPLLHILRHSPFRWPVLESNIGPEGVWSERKFSLLQTLATFRGQYSNSVFIRLYVSPDDKASNEHILKLDQATLSLAVREDYLDNSTEAKSYRDALYKFMVDTAVLLGANSSRAEHDMKSVLRLEIKIAEIMIPHENRTSEAMYNKMNISELSAMIPQFDWLGYIKKVIDTRLYPHLKDISPSENVVVRVPQYFKDLFRILGSERKKTIANYLVWRMVYSRIPNLSRRFQYRWLEFSRVIQGTTTLLPQWDKCVNFIESALPYVVGKMFVDVYFQEDKKEMMEELVEGVRWAFIDMLEKENEWMDAGTKRKAKEKARAVLAKVGYPEFIMNDTHVNEDLKAIKFSEADYFGNVLQTRKYLAQSDFFWLRKAVPKTEWFTNPTTVNAFYSASTNQIRFPAGELQKPFFWGTEYPRSLSYGAIGVIVGHEFTHGFDNNGRKYDKNGNLDPWWSTESEEKFKEKTKCMINQYSNYYWKKAGLNVKGKRTLGENIADNGGLREAFRAYRKWINDRRQGLEEPLLPGITFTNNQLFFLSYAHVRCNSYRPEAAREQVQIGAHSPPQFRVNGAISNFEEFQKAFNCPPNSTMNRGMDSCRLW
Binder B1 has a Kd (human recombinant DMP1 [1]) of 248 nM and a Kd (human recombinant DMP1 [2]) of 248 nM.

B2: PHEX (enzyme)
chain: B1 chain
In the case of B2, the Kd (ASARM peptide) is reported as 176 nM.
